According to US20200317779A1:

Columns and labels:
[1] = molecular target: recombinant human CD3ε/δ heterodimer (human) (UniProt P07766); experiment: ELISA, coated CD3ε/δ
[2] = molecular target: recombinant cynomolgus monkey CD3ε/δ heterodimer (cynomolgus monkey) (UniProt Q95LI5); experiment: ELISA, coated CD3ε/δ
Chain of recombinant cynomolgus monkey CD3ε/δ heterodimer (cynomolgus monkey) (Q95LI5 22-117, stated change not applied, chain 1 of 2): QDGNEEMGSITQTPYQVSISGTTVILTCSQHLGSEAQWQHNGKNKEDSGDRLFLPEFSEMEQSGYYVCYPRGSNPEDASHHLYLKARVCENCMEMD
Chain of recombinant cynomolgus monkey CD3ε/δ heterodimer (cynomolgus monkey) (Q95LI8 22-105, stated change not applied, chain 2 of 2, further chain): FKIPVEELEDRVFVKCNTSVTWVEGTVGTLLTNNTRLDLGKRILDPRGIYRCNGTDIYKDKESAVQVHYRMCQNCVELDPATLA

Chain of recombinant human CD3ε/δ heterodimer (human) (P07766 23-126, stated change not applied, chain 1 of 2): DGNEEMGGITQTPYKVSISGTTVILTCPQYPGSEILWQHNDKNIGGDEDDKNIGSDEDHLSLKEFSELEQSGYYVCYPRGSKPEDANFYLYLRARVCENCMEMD
Chain of recombinant human CD3ε/δ heterodimer (human) (P04234 22-105, stated change not applied, chain 2 of 2, further chain): as the sequence (Q95LI8 22-105, stated change not applied, chain 2 of 2, further chain) above, with V5I, K15N, V20I, T32S, N33D, N34I, A64T, N74S, L83V counted along it

Binder | Absorbance (450 nm) [1] | Absorbance (450 nm) [2]
C02 (antibody, human IgG1, lambda, L234A L235A, V domains shown) VH: EVQLVESGGGLVQPGGSLKLSCAASGFTFNTYAMNWVRQASGKGLEWVGRIRSKYNNYATYYADSVKDRFTISRDDSQSTAYLQMNSLKTEDTAVYYCVRHGNFGNSYVSWFAYWGQGTLVTVSS VL: QAVVTQEPSLTVSPGGTVTLTCRSSTGAVTTSNYANWFQQKPGQAPRTLIYGTNKRAPWTPARFSGSLLGDKAALTLSGAQPEDEAEYYCALWYSNLWVFGGGTKLTVLG | 0.099 | 0.071
C03 (antibody, human IgG1, lambda, L234A L235A, V domains shown) VH: EVQLVESGGGLVQPGGSLKLSCAASGFTFNTYAMNWVRQASGKGLEWVGRIRSKYNNYATYYADSVKDRFTISRDDSQSTAYLQMNSLKTEDTAVYYCVRHGNFGNSYVSWFAYWGQGTLVTVSS VL: QAVVTQEPSLTVSPGGTVTLTCRSSTGAVTTSNYANWFQQKPGQAPRTLIGGTNKRAPWTPARFSGSLLGGKAALTLSGAQPEDEAEYYCALWYSNLWVFGGGTKLTVLG | 0.14 | 0.089
C04 (antibody, human IgG1, lambda, L234A L235A, V domains shown) VH: EVQLVESGGGLVQPGGSLKLSCAASGFTFNTYAMNWVRQASGKGLEWVGRIRSKYNNYATYYADSVKDRFTISRDDSQSTAYLQMNSLKTEDTAVYYCVRHGNFGNSYVSWFAYWGQGTLVTVSS VL: QAVVTQEPSLTVSPGGTVTLTCRSSTGAVTTSNYANWFQQKPGQAPRTLIGGTNKRAPWTPARFSGSLLGDKAALTLSGAQPEDEAEYYCALWYSNLWVFGGGTKLTVLG | 0.093 | 0.067
A04 (antibody, human IgG1, lambda, L234A L235A, V domains shown) VH: EVQLVESGGGLVQPGGSLKLSCAASGFTFNTYAMNWVRQASGKGLEWVGRIRSKYNNYATYYADSVKDRFTISRDDSKNTAYLQMNSLKTEDTAVYYCVRHGNFGNSYVSWFAYWGQGTLVTVSS VL: QAVVTQEPSLTVSPGGTVTLTCRSSTGAVTTSNYANWFQQKPGQAPRTLIGGTNKRAPWTPARFSGSLLGDKAALTLSGAQPEDEAEYYCALWYSNLWVFGGGTKLTVLG | 0.098 | 0.065
C05 (antibody, human IgG1, lambda, L234A L235A, V domains shown) VH: EVQLVESGGGLVQPGGSLKLSCAASGFTFNTYAMNWVRQASGKGLEWVGRIRSKYNNYATYYADSVKDRFTISRDDSQSTAYLQMNSLKTEDTAVYYCVRHGNFGNSYVSWFAYWGQGTLVTVSS VL: QAVVTQEPSLTVSPGGTVTLTCRSSTGAVTTSNYANWFQQKPGQAPRGLIYGTNKRAPWTPARFSGSLLGGKAALTLSGAQPEDEAEYYCALWYSNLWVFGGGTKLTVLG | 0.107 | 0.128
C06 (antibody, human IgG1, lambda, L234A L235A, V domains shown) VH: EVQLVESGGGLVQPGGSLKLSCAASGFTFNTYAMNWVRQASGKGLEWVGRIRSKYNNYATYYADSVKDRFTISRDDSQSTAYLQMNSLKTEDTAVYYCVRHGNFGNSYVSWFAYWGQGTLVTVSS VL: QAVVTQEPSLTVSPGGTVTLTCRSSTGAVTTSNYANWFQQKPGQAPRGLIYGTNKRAPWTPARFSGSLLGDKAALTLSGAQPEDEAEYYCALWYSNLWVFGGGTKLTVLG | 0.108 | 0.083
C09 (antibody, human IgG1, lambda, L234A L235A, V domains shown) VH: EVQLVESGGGLVQPGGSLKLSCAASGFTFNTYAMNWVRQASGKGLEWVGRIRSKYNNYATYYADSVKDRFTISRDDSQSTAYLQMNSLKTEDTAVYYCVRHGNFGNSYVSWFAYWGQGTLVTVSS VL: QAVVTQEPSLTVSPGGTVTLTCRSSTGAVTTSNYANWVQQKPGQAPRTLIYGTNKRAPWTPARFSGSLLGGKAALTLSGAQPEDEAEYYCALWYSNLWVFGGGTKLTVLG | 0.109 | 0.075
C10 (antibody, human IgG1, lambda, L234A L235A, V domains shown) VH: EVQLVESGGGLVQPGGSLKLSCAASGFTFNTYAMNWVRQASGKGLEWVGRIRSKYNNYATYYADSVKDRFTISRDDSQSTAYLQMNSLKTEDTAVYYCVRHGNFGNSYVSWFAYWGQGTLVTVSS VL: QAVVTQEPSLTVSPGGTVTLTCRSSTGAVTTSNYANWVQQKPGQAPRTLIYGTNKRAPWTPARFSGSLLGDKAALTLSGAQPEDEAEYYCALWYSNLWVFGGGTKLTVLG | 0.096 | 0.074
C11 (antibody, human IgG1, lambda, L234A L235A, V domains shown) VH: EVQLVESGGGLVQPGGSLKLSCAASGFTFNTYAMNWVRQASGKGLEWVGRIRSKYNNYATYYADSVKDRFTISRDDSQSTAYLQMNSLKTEDTAVYYCVRHGNFGNSYVSWFAYWGQGTLVTVSS VL: QAVVTQEPSLTVSPGGTVTLTCRSSTGAVTTSNYANWVQQKPGQAPRTLIGGTNKRAPWTPARFSGSLLGGKAALTLSGAQPEDEAEYYCALWYSNLWVFGGGTKLTVLG | 0.288 | 0.261
C12 (antibody, human IgG1, lambda, L234A L235A, V domains shown) VH: EVQLVESGGGLVQPGGSLKLSCAASGFTFNTYAMNWVRQASGKGLEWVGRIRSKYNNYATYYADSVKDRFTISRDDSQSTAYLQMNSLKTEDTAVYYCVRHGNFGNSYVSWFAYWGQGTLVTVSS VL: QAVVTQEPSLTVSPGGTVTLTCRSSTGAVTTSNYANWVQQKPGQAPRTLIGGTNKRAPWTPARFSGSLLGDKAALTLSGAQPEDEAEYYCALWYSNLWVFGGGTKLTVLG | 0.087 | 0.065
C13 (antibody, human IgG1, lambda, L234A L235A, V domains shown) VH: EVQLVESGGGLVQPGGSLKLSCAASGFTFNTYAMNWVRQASGKGLEWVGRIRSKYNNYATYYADSVKDRFTISRDDSQSTAYLQMNSLKTEDTAVYYCVRHGNFGNSYVSWFAYWGQGTLVTVSS VL: QAVVTQEPSLTVSPGGTVTLTCRSSTGAVTTSNYANWVQQKPGQAPRGLIYGTNKRAPWTPARFSGSLLGGKAALTLSGAQPEDEAEYYCALWYSNLWVFGGGTKLTVLG | 0.179 | 0.179
C14 (antibody, human IgG1, lambda, L234A L235A, V domains shown) VH: EVQLVESGGGLVQPGGSLKLSCAASGFTFNTYAMNWVRQASGKGLEWVGRIRSKYNNYATYYADSVKDRFTISRDDSQSTAYLQMNSLKTEDTAVYYCVRHGNFGNSYVSWFAYWGQGTLVTVSS VL: QAVVTQEPSLTVSPGGTVTLTCRSSTGAVTTSNYANWVQQKPGQAPRGLIYGTNKRAPWTPARFSGSLLGDKAALTLSGAQPEDEAEYYCALWYSNLWVFGGGTKLTVLG | 0.107 | 0.095
A05 (antibody, human IgG1, lambda, L234A L235A, V domains shown) VH: EVQLVESGGGLVQPGGSLKLSCAASGFTFNTYAMNWVRQASGKGLEWVGRIRSKYNNYATYYADSVKDRFTISRDDSKNTAYLQMNSLKTEDTAVYYCVRHGNFGNSYVSWFAYWGQGTLVTVSS VL: QAVVTQEPSLTVSPGGTVTLTCRSSTGAVTTSNYANWFQQKPGQAPRGLIYGTNKRAPWTPARFSGSLLGGKAALTLSGAQPEDEAEYYCALWYSNLWVFGGGTKLTVLG | 0.167 | 0.141
D01 (antibody, human IgG1, lambda, L234A L235A, V domains shown) VH: EVQLVESGGGLVQPGGSLKLSCAASGFTFNTYAMNWVRQASGKGLEWVGRIRSKYNNYATYYADSVKDRFTISRDDSQSTLYLQMNSLKTEDTAVYYCVRHGNFGNSYVSWFAYWGQGTLVTVSS VL: QAVVTQEPSLTVSPGGTVTLTCRSSTGAVTTSNYANWFQQKPGQAPRTLIYGTNKRAPWTPARFSGSLLGGKAALTLSGAQPEDEAEYYCALWYSNLWVFGGGTKLTVLG | 0.136 | 0.099
D02 (antibody, human IgG1, lambda, L234A L235A, V domains shown) VH: EVQLVESGGGLVQPGGSLKLSCAASGFTFNTYAMNWVRQASGKGLEWVGRIRSKYNNYATYYADSVKDRFTISRDDSQSTLYLQMNSLKTEDTAVYYCVRHGNFGNSYVSWFAYWGQGTLVTVSS VL: QAVVTQEPSLTVSPGGTVTLTCRSSTGAVTTSNYANWFQQKPGQAPRTLIYGTNKRAPWTPARFSGSLLGDKAALTLSGAQPEDEAEYYCALWYSNLWVFGGGTKLTVLG | 0.15 | 0.073
D03 (antibody, human IgG1, lambda, L234A L235A, V domains shown) VH: EVQLVESGGGLVQPGGSLKLSCAASGFTFNTYAMNWVRQASGKGLEWVGRIRSKYNNYATYYADSVKDRFTISRDDSQSTLYLQMNSLKTEDTAVYYCVRHGNFGNSYVSWFAYWGQGTLVTVSS VL: QAVVTQEPSLTVSPGGTVTLTCRSSTGAVTTSNYANWFQQKPGQAPRTLIGGTNKRAPWTPARFSGSLLGGKAALTLSGAQPEDEAEYYCALWYSNLWVFGGGTKLTVLG | 0.159 | 0.13
D04 (antibody, human IgG1, lambda, L234A L235A, V domains shown) VH: EVQLVESGGGLVQPGGSLKLSCAASGFTFNTYAMNWVRQASGKGLEWVGRIRSKYNNYATYYADSVKDRFTISRDDSQSTLYLQMNSLKTEDTAVYYCVRHGNFGNSYVSWFAYWGQGTLVTVSS VL: QAVVTQEPSLTVSPGGTVTLTCRSSTGAVTTSNYANWFQQKPGQAPRTLIGGTNKRAPWTPARFSGSLLGDKAALTLSGAQPEDEAEYYCALWYSNLWVFGGGTKLTVLG | 0.091 | 0.072
D05 (antibody, human IgG1, lambda, L234A L235A, V domains shown) VH: EVQLVESGGGLVQPGGSLKLSCAASGFTFNTYAMNWVRQASGKGLEWVGRIRSKYNNYATYYADSVKDRFTISRDDSQSTLYLQMNSLKTEDTAVYYCVRHGNFGNSYVSWFAYWGQGTLVTVSS VL: QAVVTQEPSLTVSPGGTVTLTCRSSTGAVTTSNYANWFQQKPGQAPRGLIYGTNKRAPWTPARFSGSLLGGKAALTLSGAQPEDEAEYYCALWYSNLWVFGGGTKLTVLG | 0.121 | 0.101
D06 (antibody, human IgG1, lambda, L234A L235A, V domains shown) VH: EVQLVESGGGLVQPGGSLKLSCAASGFTFNTYAMNWVRQASGKGLEWVGRIRSKYNNYATYYADSVKDRFTISRDDSQSTLYLQMNSLKTEDTAVYYCVRHGNFGNSYVSWFAYWGQGTLVTVSS VL: QAVVTQEPSLTVSPGGTVTLTCRSSTGAVTTSNYANWFQQKPGQAPRGLIYGTNKRAPWTPARFSGSLLGDKAALTLSGAQPEDEAEYYCALWYSNLWVFGGGTKLTVLG | 0.136 | 0.11
A06 (antibody, human IgG1, lambda, L234A L235A, V domains shown) VH: EVQLVESGGGLVQPGGSLKLSCAASGFTFNTYAMNWVRQASGKGLEWVGRIRSKYNNYATYYADSVKDRFTISRDDSKNTAYLQMNSLKTEDTAVYYCVRHGNFGNSYVSWFAYWGQGTLVTVSS VL: QAVVTQEPSLTVSPGGTVTLTCRSSTGAVTTSNYANWFQQKPGQAPRGLIYGTNKRAPWTPARFSGSLLGDKAALTLSGAQPEDEAEYYCALWYSNLWVFGGGTKLTVLG | 0.14 | 0.108
